# The supplement of paper PMC10567573
# B1: SPACA3 (parent)
# chain: FTSGFNAAALDYEADGSTNNGIFQ
# Variants of: B1
# Assay: protein stability index of a GFP-peptide fusion (GPS, HEK-293T) (PSI 1-6); higher = more stable
# Settings: c terminus: a fixed tail appended
# 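Also: lentivirally expressed fusions sorted by FACS into six bins by GFP to DsRed ratio, PSI derived from sequencing read proportions per bin multiplied by bin number.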
row,Variant,protein stability index
1,FTSGFNAAAMDYEADGSTNNGIFQ [L10M],2.08
2,FTSGFNAAAWDYEADGSTNNGIFQ [L10W],1.95
3,FTSGFNAAADDYEADGSTNNGIFQ [L10D],2.47
4,FTSGFNAAACDYEADGSTNNGIFQ [L10C],1.92
5,FTSGFNAAAHDYEADGSTNNGIFQ [L10H],2.32
6,FTSGFNAAAGDYEADGSTNNGIFQ [L10G],2.38
7,FTSGFNAAAQDYEADGSTNNGIFQ [L10Q],2.14
8,FTSGFNAAAFDYEADGSTNNGIFQ [L10F],2.3
9,FTSGFNAAARDYEADGSTNNGIFQ [L10R],1.78
10,FTSGFNAAANDYEADGSTNNGIFQ [L10N],2.08
11,FTSGFNAAASDYEADGSTNNGIFQ [L10S],1.53
12,FTSGFNAAAEDYEADGSTNNGIFQ [L10E],3.02
13,FTSGFNAAATDYEADGSTNNGIFQ [L10T],2.01
14,FTSGFNAAAYDYEADGSTNNGIFQ [L10Y],1.64
15,FTSGFNAAAVDYEADGSTNNGIFQ [L10V],2.33
16,FTSGFNAAAIDYEADGSTNNGIFQ [L10I],1.98
17,FTSGFNAAAPDYEADGSTNNGIFQ [L10P],2.25
18,FTSGFNAAAKDYEADGSTNNGIFQ [L10K],1.99
19,FASGFNAAALDYEADGSTNNGIFQ [T2A],2.44
20,FQSGFNAAALDYEADGSTNNGIFQ [T2Q],2.26
21,FSSGFNAAALDYEADGSTNNGIFQ [T2S],2.88
22,FYSGFNAAALDYEADGSTNNGIFQ [T2Y],2.75
23,FDSGFNAAALDYEADGSTNNGIFQ [T2D],4.32
24,FGSGFNAAALDYEADGSTNNGIFQ [T2G],3.11

row,Variant,protein stability index
1,FNSGFNAAALDYEADGSTNNGIFQ [T2N],3.81
2,FMSGFNAAALDYEADGSTNNGIFQ [T2M],3.05
3,FESGFNAAALDYEADGSTNNGIFQ [T2E],4.66
4,FLSGFNAAALDYEADGSTNNGIFQ [T2L],2.78
5,FKSGFNAAALDYEADGSTNNGIFQ [T2K],3.62
6,FFSGFNAAALDYEADGSTNNGIFQ [T2F],3.13
7,FWSGFNAAALDYEADGSTNNGIFQ [T2W],2.91
8,FVSGFNAAALDYEADGSTNNGIFQ [T2V],2.31
9,FISGFNAAALDYEADGSTNNGIFQ [T2I],2.02
10,FPSGFNAAALDYEADGSTNNGIFQ [T2P],2.07
11,FRSGFNAAALDYEADGSTNNGIFQ [T2R],2.71
12,FHSGFNAAALDYEADGSTNNGIFQ [T2H],2.02
13,FCSGFNAAALDYEADGSTNNGIFQ [T2C],2.08
14,FTSGFNFAALDYEADGSTNNGIFQ [A7F],3.08
15,FTSGFNDAALDYEADGSTNNGIFQ [A7D],2.62
16,FTSGFNQAALDYEADGSTNNGIFQ [A7Q],2.02
17,FTSGFNCAALDYEADGSTNNGIFQ [A7C],2.08
18,FTSGFNKAALDYEADGSTNNGIFQ [A7K],1.83
19,FTSGFNEAALDYEADGSTNNGIFQ [A7E],2.8
20,FTSGFNTAALDYEADGSTNNGIFQ [A7T],1.83
21,FTSGFNRAALDYEADGSTNNGIFQ [A7R],2
22,FTSGFNPAALDYEADGSTNNGIFQ [A7P],1.82
23,FTSGFNMAALDYEADGSTNNGIFQ [A7M],2.14
24,FTSGFNYAALDYEADGSTNNGIFQ [A7Y],2.31

row,Variant,protein stability index
1,FTSGFNHAALDYEADGSTNNGIFQ [A7H],2.2
2,FTSGFNGAALDYEADGSTNNGIFQ [A7G],2.13
3,FTSGFNWAALDYEADGSTNNGIFQ [A7W],2.39
4,FTSGFNNAALDYEADGSTNNGIFQ [A7N],1.73
5,FTSGFNSAALDYEADGSTNNGIFQ [A7S],1.92
6,FTSGFNLAALDYEADGSTNNGIFQ [A7L],2.88
7,FTSGFNVAALDYEADGSTNNGIFQ [A7V],2.35
8,FTSGFNIAALDYEADGSTNNGIFQ [A7I],2.13
9,FTSGFNAAVLDYEADGSTNNGIFQ [A9V],1.91
10,FTSGFNAAQLDYEADGSTNNGIFQ [A9Q],2.97
11,FTSGFNAAFLDYEADGSTNNGIFQ [A9F],2.92
12,FTSGFNAAELDYEADGSTNNGIFQ [A9E],2.46
13,FTSGFNAACLDYEADGSTNNGIFQ [A9C],1.83
14,FTSGFNAADLDYEADGSTNNGIFQ [A9D],2.42
15,FTSGFNAAILDYEADGSTNNGIFQ [A9I],2.44
16,FTSGFNAAKLDYEADGSTNNGIFQ [A9K],1.62
17,FTSGFNAATLDYEADGSTNNGIFQ [A9T],1.69
18,FTSGFNAALLDYEADGSTNNGIFQ [A9L],1.78
19,FTSGFNAARLDYEADGSTNNGIFQ [A9R],1.99
20,FTSGFNAASLDYEADGSTNNGIFQ [A9S],2.5
21,FTSGFNAAGLDYEADGSTNNGIFQ [A9G],2.06
22,FTSGFNAAWLDYEADGSTNNGIFQ [A9W],2.5
23,FTSGFNAAYLDYEADGSTNNGIFQ [A9Y],2.03
24,FTSGFNAAPLDYEADGSTNNGIFQ [A9P],1.86

row,Variant,protein stability index
1,FTSGFNAAMLDYEADGSTNNGIFQ [A9M],2.08
2,FTSGFNAANLDYEADGSTNNGIFQ [A9N],1.82
3,FTSGFNAAHLDYEADGSTNNGIFQ [A9H],2.18
4,FTSGVNAAALDYEADGSTNNGIFQ [F5V],4.01
5,FTSGQNAAALDYEADGSTNNGIFQ [F5Q],4.12
6,FTSGTNAAALDYEADGSTNNGIFQ [F5T],4.06
7,FTSGENAAALDYEADGSTNNGIFQ [F5E],4.38
8,FTSGRNAAALDYEADGSTNNGIFQ [F5R],3.25
9,FTSGNNAAALDYEADGSTNNGIFQ [F5N],4.47
10,FTSGHNAAALDYEADGSTNNGIFQ [F5H],3.55
11,FTSGGNAAALDYEADGSTNNGIFQ [F5G],3.63
12,FTSGANAAALDYEADGSTNNGIFQ [F5A],4.07
13,FTSGSNAAALDYEADGSTNNGIFQ [F5S],4.18
14,FTSGMNAAALDYEADGSTNNGIFQ [F5M],3.25
15,FTSGDNAAALDYEADGSTNNGIFQ [F5D],4.79
16,FTSGKNAAALDYEADGSTNNGIFQ [F5K],3.8
17,FTSGPNAAALDYEADGSTNNGIFQ [F5P],3.81
18,FTSGINAAALDYEADGSTNNGIFQ [F5I],3.14
19,FTSGLNAAALDYEADGSTNNGIFQ [F5L],3.11
20,FTSGYNAAALDYEADGSTNNGIFQ [F5Y],2.18
21,FTSGWNAAALDYEADGSTNNGIFQ [F5W],3.06
22,FTSGCNAAALDYEADGSTNNGIFQ [F5C],3.03
